Each block holds one molecule with its values, some of them ahead of it.
Key:
[1] = molecular target: human insulin-like growth factor I receptor IGF-IR (human) (UniProt P08069); test: displacement of [125I]IGF-1 on R+ intact cells expressing IGF-IR
[2] = molecular target: T1, Hybrid-RsA (insulin/IGF-I hybrid receptor with IR isoform A) (human, UniProt P08069 31-1367; P06213 28-1370); test: displacement of [125I]-IGF1 on immunocaptured Hybrid-RsA
T1 construct: Heterodimer of an IGF-IR half and an IR-A half, captured on plates coated with antibody 83-7; also called HR-A; hybrid receptors A

[3] = molecular target: T2, human insulin-like growth factor I receptor IGF-IR (human, UniProt P08069 31-1367); test: displacement of [125I]IGF-1 on R+ intact cells expressing IGF-IR
T2 construct: whole, on cells; One molecule is used for the receptor on MCF-7 cells (endogenous), on Sf9 IGF-1R+ cells and on R+ fibroblasts (R- cells transfected with IGF-IR cDNA); the cell is named under assay; also called IGF-1R; IGF-I receptor

[4] = molecular target: T2, human insulin-like growth factor I …; test: cell-based or functional assay

B1: 2D10 (antibody, V domains shown)
VH: EVNLVESGGILVKPGGSLRLSCAASGFTFSNYAMSWVRQTPEKRLEWVASIGSAGYIHYPDSVKGRFTISRDNARNILYLQMSSLRSEDTAMYYCAREGGLVWFAYWGQGTLVTVSA
VL: ETTVTQSPASLSVATGEKVTIRCITSTDIDDDMNWYQQKPGEPPKLLISEGNTLRPGVPSRFSSSGYGTDFVLTIENTLSEDVADYYCLQSDKMPLTFGAGTKLELK
notes: also called hybridoma CNCM I-3214
IC50 [2]: 0.2 nM
IC50 [3]: 0.15 nM
proliferative index of MCF-7 cells at 50 ng/ml IGF1, antibody 5 µg/ml [4]: < 5

B3: 12D5 (antibody, V domains shown)
VH: QVQLKESGPGLVAPSQSLSITCTVSGFSLNEYGVSWIRQPPGKGLEWLGVIWGGRDTYYHSPLKSRLSITKDNSKSQVFLKMNSLQTDDTAMYYCAKHEGMDYWGQGTSVTVSS
VL: DIVMTQSQKFMSTSVGDRVSVTCKASQNVVTNVAWYQHKPGHSPKPLIYSASYRYSGVPDRFTGSGSGTDFTLTINNVQSEDLAEYFCHQYNNFPLTFGAGTKLELK
proliferative index of MCF-7 cells at 50 ng/ml IGF1, antibody 5 µg/ml [4]: < 5

B4: 12B1 (antibody, V domains shown)
VH: QVQLKESGPDLVAPSQSLSITCTVSGFSLTNYGVHWVRQFPGKGLEWLGVIWAGGNTNYNSALMSRLTISKDNSKSQVFLKMNSLQTDDTAVYYCAREYGSTYVAWFAHWGQGTLVTVSS
VL: ENVLTQSPAIMSASPGEKVTMTCGASSSVSSSFLHWYQQKSGASPKLWIYSTSNLASGVPTRFSGSGSGTSYSLTISSVEAEDAATYYCQQYSGYPLTFGAGTKLELK
proliferative index of MCF-7 cells at 50 ng/ml IGF1, antibody 5 µg/ml [4]: < 5

Other lines, results leading:

IC50 [1]: 0.05 nM
Molecule: αIR3 (antibody)

IC50 [2]: 0.35 nM
IC50 [3]: 0.2 nM
proliferative index of MCF-7 cells at 50 ng/ml IGF1, antibody 5 µg/ml [4]: < 5
B2: 13F5 (antibody, V domains shown)
VH: QAQLQQPGAVLVRPGASVKLSCKASSYSFTDYWMNWVKRRPGQGLQWIGLIHPSDSETRLDQNFKDKATLTVDKFSSTAYMQLNSPTSEDSAVYYCTRSVIYYGNYRWYFDVWGAGTTVTVSS
VL: DVLMTQTPLSLPVSLGDQASISCRSSQTIIHSNGNTYLEWYLQKPGQSPKLLIYKVSNRFSGVPDRFSGSGSGTDFTLKISRVEAEDLGVYYCFQGSHVPYTFGGGTKLEIK
notes: also called hybridoma CNCM I-3193

Source: patent publication US20110091479A1 (PIERRE FABRE MEDICAMENT, published 2011)
